Biological target: FGFR1 extracellular domain (UniProt P11362)
Experiment: optical biosensor

Chain of UniProt P11362 (P11362 22-376): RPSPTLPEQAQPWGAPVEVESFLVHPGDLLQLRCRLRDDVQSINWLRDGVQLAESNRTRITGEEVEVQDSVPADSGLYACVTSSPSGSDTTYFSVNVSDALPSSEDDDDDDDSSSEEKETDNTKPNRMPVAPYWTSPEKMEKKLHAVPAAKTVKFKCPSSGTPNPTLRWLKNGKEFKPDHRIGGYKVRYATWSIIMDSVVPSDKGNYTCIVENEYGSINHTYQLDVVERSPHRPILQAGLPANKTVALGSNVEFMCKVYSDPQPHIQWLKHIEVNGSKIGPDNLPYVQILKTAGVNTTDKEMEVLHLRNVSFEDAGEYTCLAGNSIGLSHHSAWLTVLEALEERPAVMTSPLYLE

Ncad-Fc (from UniProt P19022 160-724) (Fc fusion)
Kd: 106 nM
